Source: US12661385B2, “Modulation of mTORCI activity and autophagy via CIB2-RHEB interaction” (University of Maryland, Baltimore, priority 2018, dated 2026)

Key:
Rheb = experiment: Co-IP of tdTomato-CIB2 with HA-GST-Rheb and Rheb variants; format: binding; conditions: co-IP assay
Experimental: FIG. 3. […] Note the stronger interaction between CIB2 and Rheb S20N variant as compared to Q64L variant (GDP vs GTP mimetic, respectively). c, CIB2 preferentially interacts with GDP-loaded Rheb is further confirmed by co-IP experiments of HA-GST-Rheb immobilized on […] and loaded with either GDP or GTPγS, followed by incubation with tdTomato-CIB2 lysate. d, Proposed model of CIB2 function in retinal sensory cells. […] Loss of CIB2 results in reduced autophagy and exacerbated mTORC1 signaling, thus leading to RPE pathology and secondary PR dysfunction. e, f Immunoblots from RPE/choroid lysates from dry AMD or control age-matched donors indicate reduced CIB2 expression, overactive mTORC1 and reduced autophagy, quantified in panel f. Unpaired two-tailed 1 test was used to determine statistical significance. p value of <0.05 (*), <0.01 (**), and <0.001 (***). Please note that one control sample (ψ) is outliner and is highly variant from the rest, Re-quantification, omitting the highly variant control sample, is shown in FIG. 15. g.
We tested the essentiality of nucleotide binding state of Rheb using co-IP assays. […] Next, we used the Q64L and […] Rheb variants, which mimic the GTP- and GDP-bound state, respectively. […]

RPE-J cells = experiment: In vitro pulse-chase phagocytosis assay with opsin immunoblotting; format: cell-based, rat; conditions: CIB2 overexpression vs control, chase 6 h
From the text: FIG. 12. CIB2 mutant mice have less autophagy/lysosomal proteins, and overexpression of CIB2. in vitro, is sufficient to boost levels of autophagy/lysosomal proteins and clearance of opsin. a. […] Pro-cathepsin D levels were quantified from non-saturated exposures. c. Representative immunoblots for indicated autophagy/lysosomal proteins from RPE-J cells transiently transfected with GFP or CIB2-IRES-GFP. Endogenous CIB2 is observable in long exposure immunoblot, while transiently overexpressed CIB2 is readily observable in short exposure immunoblot. d. Quantification for immunoblots shown in (c). n=5 (LAMP-1) or 4 (ATG5-ATG12) independent transfection experiments. e, Schematic of the pulse-chase phagocytosis assay (left panel)—also see Examples below. […]
Complementary to the findings of Cib2 mutant mice, over-expressing CIB2 in RPE-J cells increased LAMP-1 and ATG5-ATG12 complex proteins levels (FIG. 12c-d). […] To test this idea, we assessed LC3-II flux. LC3-I is a cytosolic protein which when lipidated with a phosphatidylethanolamine adduct (LC3-II form) localizes to the growing auto/phagosome membrane, and thus can be used as a reliable readout for the dynamic autophagic process (Valapala et al., Autophagy 10, 480-496 (2014); Kim et al., Noncanonical Autophagy Promotes the Visual Cycle. Cell 154, 365-376 (2013); Klionsky et al., Autophagy 12, 1-222 (2016)). […]

Binding preference among Rheb-WT, Q64L (GTP mimetic) and S20L (GDP mimetic) variants (Rheb): bound preferentially to the S20L variant
B1: CIB2: calcium and integrin binding protein 2, over-expressed in cells from plasmid constructs; SEQ ID NO:1 (human), SEQ ID NO:2 (mouse) (protein)
chain: MGNKQTIFTEEQLDNYQDCTFFNKKDILKLHARFYELAPNLVPMDYRKSPIVHVPMSLIIQMPELRENPFKERIVEAFSEDGEGNLTFNDFVDMFSVLCESAPRELKANYAFKIYDFNTDNFICKEDLEMTLARLTKSELEEDEVVLVCDKVIEEADLDGDGKLGFADFEDMIAKAPDFLSTFHIRI
modifications: left off: large carriers
Opsin 6 hr later (digestion phase) (RPE-J cells): less opsin
